Source: patent US20190375823A1 (Zymeworks, published 2019)

Assays:
CD19 on Raji B cells = biological target: T1, CD19 on Raji B cells (UniProt P15391 20-556, limits assumed); experiment: FACS on Raji cells (CD19)
T1 construct: whole, on cells; also called Raji CD19 B cells
T1 sequence (looked up): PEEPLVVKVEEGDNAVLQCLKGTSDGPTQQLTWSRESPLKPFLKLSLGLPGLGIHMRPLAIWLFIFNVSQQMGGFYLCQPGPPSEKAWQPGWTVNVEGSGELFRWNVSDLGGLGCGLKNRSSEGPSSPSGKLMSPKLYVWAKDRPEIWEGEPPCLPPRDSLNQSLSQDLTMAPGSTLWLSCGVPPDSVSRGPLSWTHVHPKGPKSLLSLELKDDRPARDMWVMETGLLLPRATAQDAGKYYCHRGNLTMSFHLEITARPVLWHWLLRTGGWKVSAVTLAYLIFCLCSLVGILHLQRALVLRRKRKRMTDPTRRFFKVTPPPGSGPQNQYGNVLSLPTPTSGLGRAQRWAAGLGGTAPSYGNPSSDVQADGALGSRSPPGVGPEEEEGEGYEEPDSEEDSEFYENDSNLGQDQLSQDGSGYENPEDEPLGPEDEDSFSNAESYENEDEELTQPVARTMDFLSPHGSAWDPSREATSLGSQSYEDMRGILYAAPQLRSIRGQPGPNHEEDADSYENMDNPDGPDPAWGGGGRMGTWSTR

Human FcRn (hFcRn) = biological target: T2, Human FcRn (hFcRn) (human, UniProt P55899 24-297; P61769 21-119, limits assumed); experiment: SPR, hFcRn immobilized, v1378 flowed over at pH 6.0
T2 construct: also called neonatal Fc receptor
Excerpt: Methods are identical to Example 2, except the directionality of the assay was reversed.

[1] = biological target: the molecule itself; experiment: native gel after co-expression (1:1 DNA level)

T2 sequence (P55899 24-297 limits assumed, chain 1 of 2): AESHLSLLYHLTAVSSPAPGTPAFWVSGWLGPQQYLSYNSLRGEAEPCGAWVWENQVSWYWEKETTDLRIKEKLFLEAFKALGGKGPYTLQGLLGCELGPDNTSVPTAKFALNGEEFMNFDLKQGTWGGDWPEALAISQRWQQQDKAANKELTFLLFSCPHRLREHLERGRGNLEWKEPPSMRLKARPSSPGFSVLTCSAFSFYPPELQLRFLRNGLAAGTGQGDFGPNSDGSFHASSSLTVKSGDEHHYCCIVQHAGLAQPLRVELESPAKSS
T2 sequence (P61769 21-119 limits assumed, chain 2 of 2): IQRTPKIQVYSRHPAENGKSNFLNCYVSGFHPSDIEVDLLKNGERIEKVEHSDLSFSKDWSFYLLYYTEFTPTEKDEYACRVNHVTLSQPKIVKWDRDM

B1: V1093 (bispecific antibody)
anti-CD19 scFv fused to the N terminus of transporter polypeptide 1 (albumin 1-337): DIQLTQSPASLAVSLGQRATISCKASQSVDYDGDSYLNWYQQIPGQPPKLLIYDASNLVSGIPPRFSGSGSGTDFTLNIHPVEKVDAATYHCQQSTEDPWTFGGGTKLEIKGGGGSGGGGSGGGGSQVQLQQSGAELVRPGSSVKISCKASGYAFSSYWMNWVKQRPGQGLEWIGQIWPGDGDTNYNGKFKGKATLTADESSSTAYMQLSSLASEDSAVYFCARRETTTVGRYYYAMDYWGQGTTVTVSSGGSDAHKSEVAHRFKDLGEENFKALVLIAFAQYLQQCPFEDHVKLVNEVTEFAKTCVADESAENCDKSLHTLFGDKLCTVATLRETYGEMADCCAKQEPERNECFLQHKDDNPNLPRLVRPEVDVMCTAFHDNEETFLKKYLYEIARRHPYFYAPELLFFAKRYKAAFTECCQAADKAACLLPKLDELRDEGKASSAKQRLKCASLQKFGERAFKAWAVARLSQRFPKAEFAEVSKLVTDLTKVHTECCHGDLLECADDRADLAKYICENQDSISSKLKECCEKPLLEKSHCIAEVENDEMPADLPSLAADFVESKDVCKNYAEAKDVFLGMFLYEYARA
transporter polypeptide 2 (albumin 342-585) with anti-CD3 scFv at the C terminus: not shown
Kd (CD19 on Raji B cells): 49 nM

B2: v1378: AlbuCORE_1 (ABH2) with anti-HER3 at the N terminus of fragment 1 and anti-HER2 (4D5) at the N terminus of fragment 2 (bispecific antibody)
chain 1: QVQLQESGGGLVKPGGSLRLSCAASGFTFSSYWMSWVRQAPGKGLEWVANINRDGSASYYVDSVKGRFTISRDDAKNSLYLQMNSLRAEDTAVYYCARDRGVGYFDLWGRGTLVTVSSASTGGGGSGGGGSGGGGSQSALTQPASVSGSPGQSITISCTGTSSDVGGYNFVSWYQQHPGKAPKLMIYDVSDRPSGVSDRFSGSKSGNTASLIISGLQADDEADYYCSSYGSSSTHVIFGGGTKVTVLGGGSDAHKSEVAHRFKDLGEENFKALVLIAFAQYLQQCPFEDHVKLVNEVTEFAKTCVADESAENCDKSLHTLFGDKLCTVATLRETYGEMADCCAKQEPERNECFLQHKDDNPNLPRLVRPEVDVMCTAFHDNEETFLKKYLYEIARRHPYFYAPELLFFAKRYKAAFTECCQAADKAACLLPKLDELRDEGKASSAKQRLKCASLQKFGERAFKAWAVARLSQRFPKAEFAEVSKLVTDLTKVHTECCHGDLLECADDRADLAKYICENQDSISSKLKECCEKPLLEKSHCIAEVENDEMPADLPSLAADFVESKDVCKNYAEAKDVFLGMFLYEYARA
chain 2: not shown
notes: also called variant 1378; anti-Her3xHer2 ABH2
Kd (Human FcRn (hFcRn)): 970 nM

B3: Albumin based Transporter polypeptide 1-Ver 1 (ABH1 fragment, albumin 1:293) (other)
chain: DAHKSEVAHRFKDLGEENFKALVLIAFAQYLQQCPFEDHVKLVNEVTEFAKTCVADESAENCDKSLHTLFGDKLCTVATLRETYGEMADCCAKQEPERNECFLQHKDDNPNLPRLVRPEVDVMCTAFHDNEETFLKKYLYEIARRHPYFYAPELLFFAKRYKAAFTECCQAADKAACLLPKLDELRDEGKASSAKQRLKCASLQKFGERAFKAWAVARLSQRFPKAEFAEVSKLVTDLTKVHTECCHGDLLECADDRADLAKYICENQDSISSKLKECCEKPLLEKSHCIAEV
notes: also called ABH1 transporter polypeptide A; ABH1 fragment 1
binding result [1]: no binding
